Reference: patent publication US20220175781A1, “CD40L COMPOSITIONS AND METHODS FOR TUNABLE REGULATION” (Obsidian Therapeutics, Inc., priority 2019, published 2022)
Substitutions are numbered along the chain they refer to.

Tests used:
HEK293T cells [1] = test: Soluble CD40L ELISA, transiently transfected HEK293T cells; type: cell-based, human
Method: Soluble CD40L (sCD40L) constructs OT-001672, OT-001686, OT-001673, OT-001674, OT-001677, and OT-001684 were transiently transfected into HEK293T cells. Cells were treated with one of the following ligands 1 μM Shield-1, 50 μM TMP, 1 μM Bazedoxifene (BZD) or vehicle control.
The pg/mL levels of soluble CD40L were measured by ELISA (Table 14). Recombinant soluble CD40L was used as the standard in the experiments.

Jurkat cells [2] = test: CD40L shedding ELISA of supernatant, Jurkat cells with or without CD40-Fc receptor; type: cell-based; set-up: CD40L levels in supernatant: unit not given here; details: 6 hours
Method: Sheddases e.g. ADAM10/17 present in the tumor microenvironment can cleave CD40L thereby preventing the successful activation of CD40 by CD40L. […] OT-001669 which has a deletion of amino acids 1-13 of CD40L was designed to reduce internalization and OT-001668 which has a deletion of amino acids 110-116 of CD40L was designed to remove the ADAM10/17 sites. Jurkat cells stably expressing the full length construct OT-001661, OT-001669, or OT-001668 were cultured for 6 hours with 1.25 μg/ml recombinant human (h) or mouse (m) CD40-Fc receptor or left untreated and tested using an ELISA assay (Table 15).

T cells (CD4 and CD8) = test: Cleavage resistant CD40L expression and TMP regulation in T cells; type: cell-based; details: for CD40L expression (percentage of CD40L expressing T cells): day 4
Method: T cells were transduced with OT-001668 and on day 4, the percentage of CD40L expressing T cells (within the both CD4 and CD8) subpopulations was calculated.
T cells were transduced with ecDHFR regulated construct OT-001671 that include a CD40L protein that was resistant to cleavage. On day 4 cells were treated with 10 μM TMP for 24 hours. […] In an independent experiment, T cells transduced with varying volumes of virus corresponding to OT-001671 were treated with increasing doses of TMP for 24 hours. In Table 41, 0.5 μL, 2 μL, and 10 μL indicate the different volumes of virus that were used.

HEK293T cells [3] = test: Surface expression of CD40L trimerization mutants, transfected HEK293T cells (FACS); type: cell-based, human; details: transiently transfected HEK293T cells
Method: Mutations were engineered within CD40L payload to reduce the binding affinity of CD40L payload for the CD40L endogenously expressed by cells. Constructs OT-002078, OT-002079, OT-002080, OT-002081, OT-002082 were generated with the CD40L trimerization mutants. HEK293T cells were transiently transfected with the constructs and CD40L expression was measured by FACS.

HEK 293T cells = test: hDHFR regulated CD40L surface expression, HEK 293T cells (flow cytometry); type: cell-based, human; details: 50 μM TMP 24 hours
Method: HEK 293T cells were transiently […] with hDHFR regulated constructs namely OT-001962, OT-001961, OT-001963 for 24 hours. Following transfection, cells were treated with 50 μM TMP for 24 hours and CD40L cell surface expression was measured using flow cytometry. […] CD40L expression in the absence of ligand was virtually undetectable.

Jurkat cells [4] = test: DHFR regulated CD40L expression, transduced Jurkat cells (flow cytometry); type: cell-based; details: for SR: TMP (50 μM) versus Vehicle
Method: Jurkat cells were transduced with lentiviruses corresponding to OT-001662, OT-001962, OT-001961, OT-001963. 24 hours after transduction, cells were split and treated with DMSO or 50 μM TMP for another 24 hours until flow cytometry-based analysis. The results are shown in Table 37 where SR indicates stabilization ration.

[5] = independent experiment with similar setup

B1: OT-001677: Soluble CD40L (sCD40L) construct (protein)
chain: GSSLALSLTADQMVSALLDAEPPILYSEYDPTRPFSEASMMGLLTNLADRELVHMINWAKRVPGFVDLTLHDQVHLLECAWMEILMIGLVWRSMEHPGKLLFAPNLLLDRDQGKCVEGGVEIFDMLLATSSRFRMMNLQGEEFVCLKSIILLNSGVYTFLSSTLKSLEEKDHIHRVLDKITDTLIHLMAKAGLTLQQQHQRLAQLLLILSHIRHMSNKRMEHLYSMKCKNVVPLSDLLLEMLDAHRLGSMHMQKGDQNPQIAAHVISEASSKTTSVLQWAEKGYYTMSNNLVTLENGKQLTVKRQGLYYIYAQVTFCSNREASSQAPFIASLCLKSPGRFERILLRAANTHSSAKPCGQQSIHLGGVFELQPGASVFVNVTDPSQVSHGTGFTSFGLLKL
- Stabilization Ratio (HEK293T cells [1]; [5]): 7.2
- basal expression in the absence of ligand (HEK293T cells [1]; [5]): very low basal expression

B2: OT-001668: cleavage resistant CD40L construct, deletion of amino acids 110-116 of CD40L to remove the ADAM10/17 sites (protein)
chain: MHMIETYNQTSPRSAATGLPISMKIFMYLLTVFLITQMIGSALFAVYLHRRLDKIEDERNLHEDFVFMKTIQRCNTGERSLSLLNCEEIKSQFEGFVKDIMLNKEETKKENDQNPQIAAHVISEASSKTTSVLQWAEKGYYTMSNNLVTLENGKQLTVKRQGLYYIYAQVTFCSNREASSQAPFIASLCLKSPGRFERILLRAANTHSSAKPCGQQSIHLGGVFELQPGASVFVNVTDPSQVSHGTGFTSFGLLKL
- CD40L levels in supernatant (Jurkat cells [2]; 1.25 μg/ml hCD40-Fc): 10
- CD40L levels in supernatant (Jurkat cells [2]; 1.25 μg/ml mCD40-Fc): 10
- shedding of CD40L (Jurkat cells [2]; untreated or with human or mouse CD40-Fc): no shedding
- CD40L levels in supernatant (Jurkat cells [2]; Untreated): 10
- CD40L expression (percentage of CD40L expressing T cells) (T cells (CD4 and CD8); CD4+): 95.5%
- CD40L expression (percentage of CD40L expressing T cells) (T cells (CD4 and CD8); CD8+): 86.7%
- expression of CD40L (T cells (CD4 and CD8); T cells, day 4, CD4 and CD8 subpopulations): High expression of CD40L

B3: OT-001684: Soluble CD40L (sCD40L) construct (protein)
chain: B1 chain with T69A, D111N, N217S
- Stabilization Ratio (HEK293T cells [1]; soluble CD40L +Ligand versus Vehicle, HEK293T cells): 1.0

B4: OT-002078: construct with CD40L trimerization mutant (protein)
chain: MGGSGGGSGGGSGMIETYNQTSPRSAATGLPISMKIFMYLLTVFLITQMIGSALFAVYLHRRLDKIEDERNLHEDFVFMKTIQRCNTGERSLSLLNCEEIKSQFEGFVKDIMLNKEETKKENSFEMQKGDQNPQIAAHVISEASSKTTSVLQWAEKGYYTMSNNLVTLENGKQLTVKRQGLYYIYAQVTFCSNREASSQAPFIASLCLKSPGRFERILLRAANTHSSAKPCGQQSIGLFGVFELQPGASVFVNVTDPSQVSHGTGFTSFGLLKL
- % CD40L positive (HEK293T cells [3]): 49.7%

B5: OT-002079: construct with CD40L trimerization mutant (protein)
chain: B4 chain with F239H
- % CD40L positive (HEK293T cells [3]): 64.7%

B6: OT-002080: construct with CD40L trimerization mutant (protein)
chain: B4 chain with Y185G, G237H
- % CD40L positive (HEK293T cells [3]): 0.11%

B7: OT-002082: construct with CD40L trimerization mutant (protein)
chain: B4 chain with H138G, G237H, F239G, G240F
- % CD40L positive (HEK293T cells [3]): 0.028%

B8: OT-001961: hDHFR regulated CD40L construct (protein)
chain: MVGSLNCIVAVSQNMGIGKNGDLPWPPLRNEFRYFQRMTTTSSVEGKQNLVIMGKKTWFSIPEKNRPLKGRINLVLSRELKEPPQGAHFLSRSLDDALKLTEQPELANKVDMVWIVGGSSVIKEAMNHPGHLKLFVTRIMQDFESDTFFPEIDLEKYKLLPEYPGVLSDVQEEKGIKYKFEVYEKNDHMIETYNQTSPRSAATGLPISMKIFMYLLTVFLITQMIGSALFAVYLHRRLDKIEDERNLHEDFVFMKTIQRCNTGERSLSLLNCEEIKSQFEGFVKDIMLNKEETKKENSFEMQKGDQNPQIAAHVISEASSKTTSVLQWAEKGYYTMSNNLVTLENGKQLTVKRQGLYYIYAQVTFCSNREASSQAPFIASLCLKSPGRFERILLRAANTHSSAKPCGQQSIHLGGVFELQPGASVFVNVTDPSQVSHGTGFTSFGLLKL
- % CD40L (HEK 293T cells): 14.6%
- % CD40L expression (Jurkat cells [4]; TMP (50 μM)): 3.5%
- SR (Jurkat cells [4]): 1.8
- % CD40L expression (Jurkat cells [4]; Vehicle (DMSO)): 2%

B9: OT-001963: hDHFR regulated CD40L construct (protein)
chain: B8 chain with K55R, N65K
- % CD40L (HEK 293T cells): 13.3%
- % CD40L expression (Jurkat cells [4]; TMP (50 μM)): 20%
- SR (Jurkat cells [4]): 10
- % CD40L expression (Jurkat cells [4]; Vehicle (DMSO)): 2%
